Results as given in PMC11826918, “Generation of antagonistic biparatopic anti-CD30 antibody from an agonistic antibody by precise epitope determination and utilization of structural characteristics of CD30 molecule” (Antibody Therapeutics, 2025).

How the values were obtained:
Assay in all cases: SPR; Biacore T200; antibody captured on anti-human Fc (CM5 chip); CD30-MBP flowed at 0, 2, 20 nM (T426: 0, 20, 200 nM), contact 90 s, dissociation 300 s; fit to a 1:1 binding mode; rough-level analysis
Details in all cases: both partners purified
BpT10-427 = target: T1, BpT10-427
T1 construct: AC10 Fv, N side; T427 Fv, C side; one Fab of each Fv; knobs-into-holes Fc; source: Expi293 fragments joined by intein-mediated protein trans-splicing, purified (Superdex 200 Increase); copies: + + +

BpT107-104 = target: T2, BpT107-104
T2 construct: T107 Fv, N side; T104 Fv, C side; one Fab of each Fv; knobs-into-holes Fc; source: Expi293 fragments joined by intein-mediated protein trans-splicing, purified (Superdex 200 Increase); copies: + + +

BpT10-104 = target: T3, BpT10-104
T3 construct: AC10 Fv, N side; T104 Fv, C side; one Fab of each Fv; knobs-into-holes Fc; source: Expi293 fragments joined by intein-mediated protein trans-splicing, purified (Superdex 200 Increase); copies: + + +

BpT105-107 = target: T4, BpT105-107
T4 construct: T105 Fv, N side; T107 Fv, C side; one Fab of each Fv; knobs-into-holes Fc; source: Expi293 fragments joined by intein-mediated protein trans-splicing, purified (Superdex 200 Increase); copies: + + +

BpT107-25 = target: T5, BpT107-25
T5 construct: T107 Fv, N side; T25 Fv, C side; one Fab of each Fv; knobs-into-holes Fc; source: Expi293 fragments joined by intein-mediated protein trans-splicing, purified (Superdex 200 Increase); copies: + + +

BpT10-105 = target: T6, BpT10-105
T6 construct: AC10 Fv, N side; T105 Fv, C side; one Fab of each Fv; knobs-into-holes Fc; source: Expi293 fragments joined by intein-mediated protein trans-splicing, purified (Superdex 200 Increase); copies: + + +

BpT10-6 = target: T7, BpT10-6
T7 construct: AC10 Fv, N side; T6 Fv, C side; one Fab of each Fv; knobs-into-holes Fc; source: Expi293 fragments joined by intein-mediated protein trans-splicing, purified (Superdex 200 Increase); copies: + + +

BpT405-6 = target: T8, BpT405-6
T8 construct: T405 Fv, N side; T6 Fv, C side; one Fab of each Fv; knobs-into-holes Fc; source: Expi293 fragments joined by intein-mediated protein trans-splicing, purified (Superdex 200 Increase); copies: + + +

BpT104-25 = target: T9, BpT104-25
T9 construct: T104 Fv, N side; T25 Fv, C side; one Fab of each Fv; knobs-into-holes Fc; source: Expi293 fragments joined by intein-mediated protein trans-splicing, purified (Superdex 200 Increase); copies: + + +

BpT105-405 = target: T10, BpT105-405
T10 construct: T105 Fv, N side; T405 Fv, C side; one Fab of each Fv; knobs-into-holes Fc; source: Expi293 fragments joined by intein-mediated protein trans-splicing, purified (Superdex 200 Increase); copies: + + +

BpT427-405 = target: T11, BpT427-405
T11 construct: T427 Fv, N side; T405 Fv, C side; one Fab of each Fv; knobs-into-holes Fc; source: Expi293 fragments joined by intein-mediated protein trans-splicing, purified (Superdex 200 Increase); copies: + + +

BpT104-405 = target: T12, BpT104-405
T12 construct: T104 Fv, N side; T405 Fv, C side; one Fab of each Fv; knobs-into-holes Fc; source: Expi293 fragments joined by intein-mediated protein trans-splicing, purified (Superdex 200 Increase); copies: + + +

T5 sequence (chain, as listed by the source, chain 1 of 4): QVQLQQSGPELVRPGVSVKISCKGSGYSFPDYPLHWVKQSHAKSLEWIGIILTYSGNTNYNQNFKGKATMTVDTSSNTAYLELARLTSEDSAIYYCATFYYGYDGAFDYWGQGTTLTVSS
T5 sequence (chain, as listed by the source, chain 2 of 4): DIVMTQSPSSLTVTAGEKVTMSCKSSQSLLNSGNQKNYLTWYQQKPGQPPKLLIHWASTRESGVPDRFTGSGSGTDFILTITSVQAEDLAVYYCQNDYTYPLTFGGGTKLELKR
T5 sequence (chain, as listed by the source, chain 3 of 4): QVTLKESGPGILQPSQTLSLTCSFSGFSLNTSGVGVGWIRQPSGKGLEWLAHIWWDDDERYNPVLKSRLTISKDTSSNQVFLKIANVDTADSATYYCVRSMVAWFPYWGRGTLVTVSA
T5 sequence (chain, as listed by the source, chain 4 of 4): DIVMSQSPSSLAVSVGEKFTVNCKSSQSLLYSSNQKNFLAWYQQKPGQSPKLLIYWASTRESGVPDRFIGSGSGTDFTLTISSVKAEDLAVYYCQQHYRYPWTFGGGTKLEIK
T2 sequence (chain, as listed by the source, chain 3 of 4): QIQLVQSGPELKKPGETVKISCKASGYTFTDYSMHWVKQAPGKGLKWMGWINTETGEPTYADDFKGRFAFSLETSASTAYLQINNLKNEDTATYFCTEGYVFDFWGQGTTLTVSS
T2 sequence (chain, as listed by the source, chain 4 of 4): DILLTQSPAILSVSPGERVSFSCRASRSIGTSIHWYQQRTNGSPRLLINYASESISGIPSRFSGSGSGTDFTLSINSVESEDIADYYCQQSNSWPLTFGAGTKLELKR
T6 sequence (chain, as listed by the source, chain 1 of 4): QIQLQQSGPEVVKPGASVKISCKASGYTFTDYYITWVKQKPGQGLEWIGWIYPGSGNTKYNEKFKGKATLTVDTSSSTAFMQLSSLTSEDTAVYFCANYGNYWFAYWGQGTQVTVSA
T6 sequence (chain, as listed by the source, chain 2 of 4): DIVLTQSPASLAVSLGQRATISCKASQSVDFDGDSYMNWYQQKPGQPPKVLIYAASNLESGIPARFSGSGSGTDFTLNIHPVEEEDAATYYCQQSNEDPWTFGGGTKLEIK
T6 sequence (chain, as listed by the source, chain 3 of 4): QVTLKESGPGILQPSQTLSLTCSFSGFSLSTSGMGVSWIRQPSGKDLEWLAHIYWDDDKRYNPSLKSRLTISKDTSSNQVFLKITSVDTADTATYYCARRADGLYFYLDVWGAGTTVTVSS
T6 sequence (chain, as listed by the source, chain 4 of 4): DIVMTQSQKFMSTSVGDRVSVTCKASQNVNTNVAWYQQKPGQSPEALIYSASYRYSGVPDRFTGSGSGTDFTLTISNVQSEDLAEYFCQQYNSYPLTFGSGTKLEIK
T7 sequence (chain, as listed by the source, chain 3 of 4): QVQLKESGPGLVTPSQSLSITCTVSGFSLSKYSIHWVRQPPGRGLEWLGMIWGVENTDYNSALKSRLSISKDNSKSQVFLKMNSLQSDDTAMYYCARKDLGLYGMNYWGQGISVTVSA
T7 sequence (chain, as listed by the source, chain 4 of 4): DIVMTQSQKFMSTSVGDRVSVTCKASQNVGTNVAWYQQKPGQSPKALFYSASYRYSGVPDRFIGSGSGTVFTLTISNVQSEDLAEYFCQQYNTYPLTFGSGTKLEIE
T1 sequence (chain, as listed by the source, chain 3 of 4): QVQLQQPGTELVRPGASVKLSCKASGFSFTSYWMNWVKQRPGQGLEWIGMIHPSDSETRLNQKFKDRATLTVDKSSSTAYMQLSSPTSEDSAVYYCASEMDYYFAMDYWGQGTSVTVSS
T1 sequence (chain, as listed by the source, chain 4 of 4): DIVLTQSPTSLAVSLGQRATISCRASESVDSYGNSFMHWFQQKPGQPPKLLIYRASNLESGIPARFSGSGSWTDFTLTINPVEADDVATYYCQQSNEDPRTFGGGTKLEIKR

B1: Maltose-binding protein-fused CD30 (domain or fragment)
chain: FPQDRPFEDTCHGNPSHYYDKAVRRCCYRCPMGLFPTQQCPQRPTDCRKQCEPDYYLDEADRCTACVTCSRDDLVEKTPCAWNSSRVCECRPGMFCSTSAVNSCARCFFHSVCPAGMIVKFPGTAQKNTVCEPASPGVSPACASPENCKEPSSGTIPQAKPTPVSPATSSASTMPVRGGTRLAQEAASKLTRAPDSPSSVGRPSSDPGLSPTQPCPEGSGDCRKQCEPDYYLDEAGRCTACVSCSRDDLVEKTPCAWNSSRTCECRPGMICATSATNSCARCVPYPICAAETVTKPQDMAEKDTTFEAPPLGTQPDCN
modifications: Construct 1-336 includes signal peptide 1-18, taken as cleaved on secretion; C-terminal MBP carrier and His tag left out; disulfide-bonded, likely glycosylated (Expi293)
For B1, the Kd (BpT10-427) was 0.58 nM, the Kd (BpT107-104) was 0.4 nM and the Kd (BpT10-104) was 0.26 nM. It also gave a Kd (BpT105-107) of 0.26 nM, a Kd (BpT107-25) of 0.87 nM and a Kd (BpT10-105) of 0.066 nM. For the same binder, the Kd (BpT10-6) was 0.27 nM, the Kd (BpT405-6) was 0.44 nM and the Kd (BpT104-25) was 0.5 nM. It also gave a Kd (BpT105-405) of 0.67 nM, a Kd (BpT427-405) of 0.31 nM and a Kd (BpT104-405) of 48 nM.
